In patent US20230330249A1, “ANTIBODY-CONJUGATED CHEMICAL INDUCERS OF DEGRADATION OF BRM AND METHODS THEREOF” (Genentech, Inc., priority 2020, published 2023):
Residue numbers refer to the chain shown, from its start. Names may count otherwise.

B1: Thio Hu Anti-TfR1.NG2LH.FcRn null high DAR [HC:L174C HC:Y373C LC:K149C] MC-sqCit BRM CIDE Ab-L1-CIDE-BRM1-13 (conjugate)
heavy: EVQLVQSGAEVKKPGASVKVSCKASGYTFTSYWMHWVRQAPGQRLEWIGEINPTNGRTNYIEKFKSRATLTVDKSASTAYMELSSLRSEDTAVYYCARGTRAYHYWGQGTMVTVSSASTKGPSVFPLAPSSKSTSGGTAALGCLVKDYFPEPVTVSWNSGALTSGVHTFPAVCQSSGLYSLSSVVTVPSSSLGTQTYICNVNHKPSNTKVDKKVEPKSCDKTHTCPPCPAPPVAGPSVFLFPPKPKDTLMISRTPEVTCVVVDVSHEDPEVKFNWYVDGVEVHNAKTKPREEQYGSTYRVVSVLTVLHQDWLNGKEYKCKVSNKALPAPIEKTISKAKGQPREPQVYTLPPSREEMTKNQVSLTCLVKGFCPSDIAVEWESNGQPENNYKTTPPVLDSDGSFFLYSKLTVDKSRWQQGNVFSCSVMHEALHNHYTQKSLSLSPGK
light: DIQMTQSPSSLSASVGDRVTITCRASDNLYSNLAWYQQKPGKSPKLLVYDATNLADGVPSRFSGSGSGTDYTLTISSLQPEDFATYYCQHFWGTPLTFGQGTKVEIKRTVAAPSVFIFPPSDEQLKSGTASVVCLLNNFYPREAKVQWCVDNALQSGNSQESVTEQDSKDSTYSLSSTLTLSKADYEKHKVYACEVTHQGLSSPVTKSFNRGEC
B2: Thio Hu Anti-TfR2.NG2LH high DAR [HC:L174C HC:Y373C LC:K149C] diMe Me disulfide BRM degrader phos Ab-L1-CIDE-BRM1-9 (conjugate)
heavy: B1 heavy
light: B1 light with W92A

Legend:
Lysosomal release assay = assay type: in vitro ADME, human; conditions: pH 5.5, 24 h; for Release in lysosomal extract: 10 μM linker-drug, human liver lysosomes 0.17 mg/mL, cysteine 5 mM, 37° C.
Text: Lysosomal release assays were run to measure the release of the degrader from the L1 moeity in an environment that mimics intracellular milieu. For the degrader to be active at binding BRM and ferrying it to the ubiquitin ligase, the L1 must first be released.
The assay was run using an L1 bound to the BRM-binding compound, named “L1-BRM1-#” that corresponds to the respective CIDE. The test determine whether cleavage of the covalent attachment of the L1 to the BRM portion occurred. Linker-drugs ([…]) were incubated with human liver lysosomes (0.17 mg/mL) and cysteine (5 mM) in 100 mM citric acid buffer pH 5.5 for 24 h. The samples were analyzed by Q Exactive Orbitrap mass specrometers using LC mobile phase containing (A) 0.1% formic acid in water and (B) 0.1% formic acid in acetonitrile in a gradient.

BRM [1] = target: T1, BRM (Homo sapiens, UniProt P51531); assay: Cell assay to determine DC50 and Dmax (nuclear BRM immunofluorescence), NCI-H1944 cells; assay type: cell-based; conditions: 24 h drug treatment, nuclear BRM signal
T1 construct: endogenous in cells; host or cells: HCC515
Description: (§1) Cell based assays were run in […] cell lines to determine the DC50 and Dmax of Ab-L1-CIDE. BJAB, HCC515 and H1944 cells were plated in 384 well plates at 5000, 4000 and 2500 cells/well, respectively. The next day Ab-CIDEs were added. Following 24 h of drug treatment the cells were fixed with 4% formaldehyde for 15 minutes. The plates were washed three time with PBS. The cells were incubated with IF blocking solution (10% FCS, 1% BSA, […] in PBS). After 1.5 h a 2× solution of primary antibody diluted in IF blocking buffer: BRM (Cell signaling Cat #11966, 1:2000) was added. The plates were incubated over night at 4° C. The following morning cells were washed three time with PBS. Cells were then incubated with secondary antibodies (rabbit-Alexa 488 A21206 (1:2000)) for 1 h at room temperature in the dark. Hoechst H3570 at 1:5000 was added to the wells and the plates were incubated for an additional 30 minutes. Plates were wash 3×PBS and image on Opera Phenix™ High Content Screening System. Using nuclear staining as a mask, nuclear BRM mean signal intensity was quantified.
(§2) The data evidence the successful antibody targeting strategies disclosed herein.

BRM [2] = target: T1, BRM; assay: Cell assay to determine DC50 and Dmax (nuclear BRM immunofluorescence), HCC515 cells; assay type: cell-based; conditions: 24 h drug treatment, nuclear BRM signal
Description: as §1, §2

T1 sequence (P51531 whole entry): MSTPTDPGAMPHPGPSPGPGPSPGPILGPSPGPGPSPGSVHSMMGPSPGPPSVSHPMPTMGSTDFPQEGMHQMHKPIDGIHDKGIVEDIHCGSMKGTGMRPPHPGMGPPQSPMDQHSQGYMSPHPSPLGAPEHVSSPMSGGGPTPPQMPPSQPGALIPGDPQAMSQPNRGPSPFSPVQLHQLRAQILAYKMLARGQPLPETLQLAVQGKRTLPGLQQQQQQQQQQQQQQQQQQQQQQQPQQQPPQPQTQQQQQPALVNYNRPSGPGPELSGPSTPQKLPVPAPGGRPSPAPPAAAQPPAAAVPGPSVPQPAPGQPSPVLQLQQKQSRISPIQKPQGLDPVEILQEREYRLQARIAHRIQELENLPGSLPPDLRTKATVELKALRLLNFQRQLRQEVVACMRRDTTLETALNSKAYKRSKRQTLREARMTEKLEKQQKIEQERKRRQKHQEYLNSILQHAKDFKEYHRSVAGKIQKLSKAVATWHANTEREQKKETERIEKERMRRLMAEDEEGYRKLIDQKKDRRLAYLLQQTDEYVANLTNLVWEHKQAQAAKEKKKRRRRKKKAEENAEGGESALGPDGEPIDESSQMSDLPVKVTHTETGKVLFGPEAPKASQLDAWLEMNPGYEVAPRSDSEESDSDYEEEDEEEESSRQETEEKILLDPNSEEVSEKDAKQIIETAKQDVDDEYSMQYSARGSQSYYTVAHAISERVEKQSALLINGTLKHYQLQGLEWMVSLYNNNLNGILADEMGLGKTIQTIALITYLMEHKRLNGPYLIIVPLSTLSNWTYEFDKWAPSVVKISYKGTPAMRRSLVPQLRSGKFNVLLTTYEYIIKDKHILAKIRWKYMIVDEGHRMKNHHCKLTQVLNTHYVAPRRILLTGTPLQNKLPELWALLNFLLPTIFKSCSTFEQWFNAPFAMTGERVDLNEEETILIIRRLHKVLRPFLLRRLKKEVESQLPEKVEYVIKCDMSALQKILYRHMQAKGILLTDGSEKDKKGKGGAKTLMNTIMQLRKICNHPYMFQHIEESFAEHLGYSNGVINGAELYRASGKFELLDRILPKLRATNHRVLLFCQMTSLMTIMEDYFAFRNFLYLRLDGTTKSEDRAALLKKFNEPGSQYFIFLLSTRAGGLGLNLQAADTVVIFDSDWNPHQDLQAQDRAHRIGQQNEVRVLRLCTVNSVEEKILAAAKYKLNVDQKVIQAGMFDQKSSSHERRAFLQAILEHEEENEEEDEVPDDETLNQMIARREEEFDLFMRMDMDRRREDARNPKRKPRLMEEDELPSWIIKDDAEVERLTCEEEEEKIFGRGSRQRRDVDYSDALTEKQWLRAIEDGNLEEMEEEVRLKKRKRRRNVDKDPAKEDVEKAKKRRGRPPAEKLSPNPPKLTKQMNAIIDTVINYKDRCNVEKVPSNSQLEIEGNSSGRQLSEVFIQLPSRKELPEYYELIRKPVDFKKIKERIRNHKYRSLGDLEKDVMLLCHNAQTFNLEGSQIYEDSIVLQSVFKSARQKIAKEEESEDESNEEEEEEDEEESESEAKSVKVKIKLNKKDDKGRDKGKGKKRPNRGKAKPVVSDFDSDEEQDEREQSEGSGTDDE

| Molecule | Release in lysosomal extract (Lysosomal release assay) | NCI-HI944 DC50 (BRM [1]) [µg/mL] | NCI-HI944 Dmax (BRM [1]) | also measured |
| --- | --- | --- | --- | --- |
| Cc1ncsc1-c1ccc([C@H](C)NC(=O)[C@@H]2C[C@@H](OC(=O)OC(C)C(C)(C)SS(C)(=O)=O)CN2C(=O)[C@@H](c2cc(OCCN3CCN(CCOc4cc(N5C6CCC5CN(c5cc(-c7ccccc7OCOP(=O)(O)O)nnc5N)C6)ccn4)[C@H](C)C3)no2)C(C)C)cc1 (stereo partly shown) [L1-BRM1-9] | Yes (“Yes” indicates >50% free drug observed after 24 h incubation at 37 °C in lysosomal extract.) | – | – | – |
| Cc1ncsc1-c1ccc([C@H](C)NC(=O)[C@@H]2C[C@@H](O)CN2C(=O)[C@@H](c2cc(OCCN3CCN(CCOc4cc(N5C6CCC5CN(c5cc(-c7ccccc7OCc7ccc(NC(=O)[C@H](CCCNC(N)=O)NC(=O)C8(C(=O)NCCCCCN9C(=O)C=CC9=O)CCC8)cc7)nnc5N)C6)ccn4)[C@H](C)C3)no2)C(C)C)cc1 [L1-BRM1-13] | Yes (“Yes” indicates >50% free drug observed after 24 h incubation at 37 °C in lysosomal extract.) | – | – | – |
| Cc1ncsc1-c1ccc([C@H](C)NC(=O)[C@@H]2C[C@@H](O)CN2C(=O)[C@@H](c2cc(OCCN3CCN(CCOc4cc(N5C6CCC5CN(c5cc(-c7ccccc7O)nnc5NC(=O)OCc5ccc(NC(=O)[C@H](CCCNC(N)=O)NC(=O)C7(C(=O)NCCCCCN8C(=O)C=CC8=O)CCC7)cc5)C6)ccn4)[C@H](C)C3)no2)C(C)C)cc1 [L1-BRM1-20] | Yes (“Yes” indicates >50% free drug observed after 24 h incubation at 37 °C in lysosomal extract.) | – | – | – |
| Cc1ncsc1-c1ccc([C@H](C)NC(=O)[C@@H]2C[C@@H](O)CN2C(=O)[C@@H](c2cc(OCCN3CCN(CCOc4cc(N5C6CCC5CN(c5cc(-c7ccccc7OS(=O)(=O)Oc7cc(C(=O)NCCOCCOCCOCCn8cc(COCCOCCOCCOCCNC(=O)CCN9C(=O)C=CC9=O)nn8)ccc7O[C@@H]7O[C@H](CO)[C@H](O)[C@H](O)[C@H]7O)nnc5N)C6)ccn4)[C@H](C)C3)no2)C(C)C)cc1 [L1-CIDE-BRM1-15] | – | – | – | Release of the degrader in lysosomal extracts (Lysosomal release assay; human liver lysosomes): did not release the degrader |
| B1 | – | 0.07 | 77 | – |
| B2 | – | 0.74 | 94 | HCC515 DC50 (BRM [2]): 0.12 µg/mL; HCC515 Dmax (BRM [2]): 96 |
